The source of these data is the PETadex activity labels (doi:10.1128/spectrum.00976-21).

Substrate in data set [1]: pNP-C2
The data set is described as follows: Proxy for plastic degradation [Specific activity].

Substrate in data set [2]: PET; PCL
The data set is described as follows: Proxy for plastic degradation [Titratable acid release]. As to conditions: pH 7.5; 14 h.

B1: unnamed (protein)
chain: MVRVFGLTLLALLVPALAAPVPEDLEARQSGCADVMVVYARGTDQDSPIGDPASVGVLFRDNIKSLLGSRTFSFQGVNYAANVIGFLQGGDPAGSRQMTTDLTNVANSCPNAKIVSAGYSQGGQLVHNSAAQLTAAVRNRINAVVIFGDPKSDQAVTGIPSSNVKIICHDGDNICEGGFIVTSQHTNYQQDAPAAAQFVLSKV
In the case of B1, the “Proxy for plastic degradation” value in data set [1] (pH 2) was determined as 0 U/mg; in data set [1] (pH 3), 0 U/mg; in data set [1] (pH 4), 0 U/mg; in data set [1] (pH 5), 14500 U/mg; in data set [1] (pH 6), 27500 U/mg; in data set [1] (pH 7), 29500 U/mg. Moreover, the “Proxy for plastic degradation” value in data set [1] (pH 7.5, 0 h) was determined as 17500 U/mg; in data set [1] (pH 7.5, 20 °C), 0 U/mg; in data set [1] (pH 7.5, 30 °C), 22500 U/mg; in data set [1] (pH 7.5, 40 °C) it was 32500 U/mg; in data set [1] (pH 7.5, 50 °C), 20000 U/mg; in data set [1] (pH 7.5, 60 °C) it was 300 U/mg. For the same protein, the “Proxy for plastic degradation” value in data set [1] (pH 7.5, 70 °C) worked out at 0 U/mg; in data set [1] (pH 7.5, 80 °C), 0 U/mg; in data set [1] (pH 7.5, 1 h) it was 19400 U/mg; in data set [1] (pH 7.5, 2 h) it was 22500 U/mg; in data set [1] (pH 7.5, 3 h), 35000 U/mg; in data set [1] (pH 7.5, 4 h), 25000 U/mg. Also, the “Proxy for plastic degradation” value was 18500 U/mg in data set [1] (pH 7.5, 5 h); 32200 U/mg in data set [1] (pH 8); 10000 U/mg in data set [1] (pH 9); 10.9 mL in data set [2].
